Data on 1 molecule can be found in patent publication US20100112057A1 (published 2010).

The target in data set [1] is T1, streptavidin (streptavidin-coated SA chip) (UniProt P22629 37-163, limits assumed).
T1 construct: Surface protein of the commercial SPR chip
In words: SPR, Biacore 3000, streptavidin-coated (SA) chip. (In general: Surface plasmon resonance follows binding to a sensor surface in real time, without labels.)

Data set [2] concerns the molecule itself. The data set can be described thus: circular dichroism in PBS; concentration dependence of MRE at 222 nm fitted for the Kd of coiled-coil dimerization (unfolding/dissociation of the dimer). For orientation: Circular dichroism is the unequal absorption of left and right circularly polarised light.

T1 sequence (P22629 37-163 limits assumed): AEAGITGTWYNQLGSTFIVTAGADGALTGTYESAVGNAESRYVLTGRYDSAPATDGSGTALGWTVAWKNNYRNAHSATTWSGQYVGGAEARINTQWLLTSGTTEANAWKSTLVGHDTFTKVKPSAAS

B1: PF4ZIP (peptide)
peptide: CGGRMKQLEDKVKKLLKKNYHLENEVARLKKLVG
notes: Free peptide made by Fmoc solid phase synthesis on Rink Amide MBHA resin; The measurement is the self-association of two such chains into a coiled-coil dimer; also called PF4ZIP peptide
In general, Kd refers to the equilibrium constant for the complex coming apart. B1: the binding result in data set [1] is “no binding”. This molecule also returned a Kd in data set [2] of 3.48 µM.
